Source: the supplement of paper PMC10126150
± gives the standard deviation of the averaged measurements.

Each sequence was assayed on ATP (assay: switch fluorescence ratio, 500 uM ATP over buffer (Cy3 cluster intensity, sum of 5 cycles each) (fold (ratio)); higher = stronger signal-on switching upon ATP binding; sequences stand for … in TCGTCGGCAGCGTCAGATGTGTATAAGAGACAGTTTTTTTTTTTTTTTTTTTTTTTTT…TC). Details: aptamer strand: ATP DNA aptamer (quencher-CACCTGGGGGAGTATTGCGGAGGAAGG + anchor), 100 nM annealed; ATP concentration: 500 uM.
Summary of the method: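 Cy3-labelled switching-strand clusters on a modified Illumina MiSeq flow-cell were annealed to 100 nM quencher-labelled ATP aptamer and imaged first in selection buffer, then after 15 min with 500 uM ATP at 22 °C. NaOH stripping and re-annealing separated each of five buffer/ATP cycles, and clusters outside 100-1000 RFU were excluded. The fluorescence ratio sums target-cycle Cy3 intensity over buffer-cycle Cy3 intensity per cluster and averages it per switch-domain sequence.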
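Also: ATP exposure 15 min at 22 °C before imaging.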

First: AAACTAGCGC
Second: AAACTAGGGG
The switch fluorescence ratio of the first is lower: 0.981 ± 0.015 for the first, 1.06 ± 0.016 for the second.

AAACTAGGGT and AAACTGAAAT are within error of each other in switch fluorescence ratio: 0.9975 ± 0.0077 for the first, 1.76 ± 1.1 for the second.

AAACTGAATC and AAACTGATGA are within error of each other in switch fluorescence ratio: 1 ± 0.094 for the first, 1.06 ± 0.024 for the second.

AAACTGCTCG and AAACTGGGGG are within error of each other in switch fluorescence ratio: 1.04 ± 0.064 for the first, 1.012 ± 0.0032 for the second.

AAACTTATAA and AAACTTGGCA are within error of each other in switch fluorescence ratio: 0.991 ± 0.029 for the first, 1.017 ± 0.0088 for the second.

AAAGAACACG and AAAGAACACT are within error of each other in switch fluorescence ratio: 1.05 ± 0.1 for the first, 1.06 ± 0.037 for the second.

AAAGAACGGA and AAAGAAGAGA are within error of each other in switch fluorescence ratio: 1.06 ± 0.095 for the first, 1.021 ± 0.0069 for the second.

AAAGAAGGTG and AAAGAATGGG are within error of each other in switch fluorescence ratio: 1.06 ± 0.12 for the first, 0.978 ± 0.017 for the second.

AAAGACATGG and AAAGAGCCTT are within error of each other in switch fluorescence ratio: 0.989 ± 0.017 for the first, 1.13 ± 0.2 for the second.

AAAGAGCGTA and AAAGAGTAAT are within error of each other in switch fluorescence ratio: 1 ± 0.029 for the first, 1.006 ± 0.0045 for the second.

First: AAAGAGTAGT
Second: AAAGAGTATA
The switch fluorescence ratio of the first is lower: 0.962 ± 0.014 for the first, 0.9972 ± 0.0036 for the second.

AAAGAGTTGG and AAAGATAATG are within error of each other in switch fluorescence ratio: 0.99 ± 0.047 for the first, 1.003 ± 0.0091 for the second.

AAAGATGTCG and AAAGCAGTTT are within error of each other in switch fluorescence ratio: 1.07 ± 0.044 for the first, 1.05 ± 0.022 for the second.

AAAGCCGGTG and AAAGCCGTTT are within error of each other in switch fluorescence ratio: 1.022 ± 0.00024 for the first, 1.2 ± 0.27 for the second.

Compared with AAAGCTATAT, AAAGCTGCCA is lower in switch fluorescence ratio: 1.12 ± 0.011 for the first, 1.004 ± 0.0056 for the second.

AAAGGAAAAC and AAAGGAACAG are within error of each other in switch fluorescence ratio: 1 ± 0.022 for the first, 1.03 ± 0.017 for the second.

AAAGGAAGAT and AAAGGATAAG are the same in switch fluorescence ratio: 0.993 ± 0.055 for the first, 0.993 ± 0.038 for the second.

Going from AAAGGATATC to AAAGGATGGG, the switch fluorescence ratio falls from 1.036 ± 0.0028 to 1 ± 0.016.

AAAGGATTTA and AAAGGCATTC are within error of each other in switch fluorescence ratio: 1.02 ± 0.061 for the first, 1.05 ± 0.025 for the second.

Compared with AAAGGGAACA, AAAGGGAGAA is lower in switch fluorescence ratio: 1.01 ± 0.019 for the first, 0.971 ± 0.011 for the second.

AAAGGGCATC and AAAGGGGAAC are within error of each other in switch fluorescence ratio: 1.01 ± 0.058 for the first, 1.03 ± 0.028 for the second.

AAAGGGGATC and AAAGGGGCTG are within error of each other in switch fluorescence ratio: 0.998 ± 0.017 for the first, 0.98 ± 0.061 for the second.

AAAGGGGGGA and AAAGGGTATC are within error of each other in switch fluorescence ratio: 0.995 ± 0.029 for the first, 0.9956 ± 0.0092 for the second.

AAAGGGTGTG and AAAGGGTTAG are the same in switch fluorescence ratio: 1 ± 0.019 for the first, 1 ± 0.028 for the second.

AAAGGGTTCT and AAAGGGTTGA are within error of each other in switch fluorescence ratio: 0.994 ± 0.04 for the first, 0.9559 ± 0.0011 for the second.

Going from AAAGGGTTTG to AAAGGTCCGC, the switch fluorescence ratio rises from 1.01 ± 0.033 to 1.18 ± 0.051.

AAAGGTCGAT and AAAGGTGATG are within error of each other in switch fluorescence ratio: 0.986 ± 0.022 for the first, 0.978 ± 0.04 for the second.

AAAGGTTGAT and AAAGTATCTT are within error of each other in switch fluorescence ratio: 1.01 ± 0.011 for the first, 1.02 ± 0.037 for the second.

Compared with AAAGTATTTC, AAAGTCAGTA is lower in switch fluorescence ratio: 1.02 ± 0.015 for the first, 0.9818 ± 0.007 for the second.

First: AAAGTCATGG
Second: AAAGTCCTA
The switch fluorescence ratio of the first is lower: 0.948 ± 0.013 for the first, 0.982 ± 0.015 for the second.

AAAGTCGTTC and AAAGTGGGGT are within error of each other in switch fluorescence ratio: 0.977 ± 0.028 for the first, 1 ± 0.018 for the second.

AAAGTGGTGT and AAAGTTCGAA are within error of each other in switch fluorescence ratio: 0.9845 ± 0.0018 for the first, 0.977 ± 0.035 for the second.

Going from AAAGTTCGAG to AAAGTTCGGC, the switch fluorescence ratio rises from 0.99 ± 0.021 to 1.06 ± 0.024.

AAAGTTTATG and AAAGTTTCTC are within error of each other in switch fluorescence ratio: 1.007 ± 0.0053 for the first, 1 ± 0.032 for the second.

AAAGTTTGG and AAAGTTTTAT are within error of each other in switch fluorescence ratio: 0.977 ± 0.017 for the first, 0.984 ± 0.025 for the second.

AAAGTTTTTT and AAATAAACGC are within error of each other in switch fluorescence ratio: 1.19 ± 0.39 for the first, 1.025 ± 0.0031 for the second.

AAATAATTAG and AAATACCCAG are within error of each other in switch fluorescence ratio: 1.01 ± 0.016 for the first, 1.04 ± 0.034 for the second.

First: AAATAGAAAT
Second: AAATAGATCG
The switch fluorescence ratio of the first is lower: 0.96 ± 0.011 for the first, 1.05 ± 0.066 for the second.

First: AAATAGTGCC
Second: AAATATGAGC
The switch fluorescence ratio of the first is higher: 1.036 ± 0.0029 for the first, 0.993 ± 0.033 for the second.

Compared with AAATATTTAC, AAATCAAGTG is lower in switch fluorescence ratio: 1.12 ± 0.11 for the first, 0.97516 ± 1.6e-05 for the second.

First: AAATCCGCG
Second: AAATCCGGTT
The switch fluorescence ratio of the first is higher: 1.28 ± 0.031 for the first, 1.008 ± 0.0028 for the second.

AAATCGGTGG and AAATCGTATG are within error of each other in switch fluorescence ratio: 1.01 ± 0.046 for the first, 0.974 ± 0.034 for the second.

AAATCGTCCA and AAATCTCTTT are within error of each other in switch fluorescence ratio: 0.992 ± 0.057 for the first, 1 ± 0.014 for the second.

AAATCTGTAG and AAATGAAAAA are within error of each other in switch fluorescence ratio: 0.9849 ± 0.002 for the first, 0.99 ± 0.091 for the second.

AAATGATAGC and AAATGATCCG are within error of each other in switch fluorescence ratio: 1.016 ± 0.0037 for the first, 1.08 ± 0.063 for the second.

AAATGCAGCT and AAATGCGGCC are within error of each other in switch fluorescence ratio: 0.977 ± 0.016 for the first, 1 ± 0.067 for the second.

AAATGCTACT and AAATGCTGGG are within error of each other in switch fluorescence ratio: 1.02 ± 0.028 for the first, 0.99 ± 0.031 for the second.

AAATGGAGGG and AAATGGCTGG are within error of each other in switch fluorescence ratio: 1.01 ± 0.044 for the first, 0.9982 ± 0.0091 for the second.

AAATGGGAGG and AAATGGGGGA are within error of each other in switch fluorescence ratio: 0.996 ± 0.032 for the first, 0.991 ± 0.04 for the second.

AAATGGTCGA and AAATGGTCGG are the same in switch fluorescence ratio: 0.974 ± 0.01 for the first, 0.974 ± 0.017 for the second.
